Substrate: N[C@@H](CS)C(=O)O
Experiment: purified protein
Type: biochemical, Salmonella enterica
Settings: 2 mM ATP, 2 mM PPi, 10 mM MgCl2, 30 mM KCl, 100 mM HEPES pH 7.5, 37 °C, 25 nM enzyme, 50 μM-2 mM Cys

B1: CysRS^chr (Salmonella enterica subsp. enterica serovar Typhimurium str. LT2) (protein)
chain: MLKIFNTLTRQKEEFKPIHAGEVGMYVCGITVYDLCHIGHGRTFVAFDVVARYLRFLGYKLKYVRNITDIDDKIIKRANENGESFVALVDRMIAEMHQDFDALNILRPDSEPRATHHIQEIIELTRTLIEKGHAYVADNGDVMFDVPTDPTYGQLSRQDLEQLQAGARVDVVDVKRNPMDFVLWKMSKEGEPSWPSPWGEGRPGWHIECSAMNCKQLGNHFDIHGGGSDLMFPHHENEIAQSTCAHDGEYVNYWMHSGMVMVDREKMSKSLGNFFTVRDVLKYYDAETVRYFLMSGHYRSQLNYSEENLKQARASLERLYTALRGTDKSAAPAGGEAFEARFVEAMNDDFNTPEAYSVLFDMAREVNRLKGEDMTAANAMASHLRKISGVLGLLEQEPDVFLQSGAQADDGEVAEIEALIQQRLDARKAKDWAAADAARDRLAEMGIILEDGPQGTTWRRK
notes: tag removal not mentioned
  Km: 14 ± 3 µM
  kcat: 1.1 ± 0.2 s⁻¹
